± gives the standard deviation of the averaged measurements.
B1: library; a variant is named by its letters at N, in order (parent)
chain: GCUGUCACCGGUGUAUUACCCUAGUGGUCGACCGGUCUGAUGAGUCUNNNNNNAGACGAAACAGC

Columns and labels:
hypoxanthine [1] = variants of: B1; experiment: FACS-Seq fitted mean relative fluorescence mCherry/BFP without ligand (log10 relative fluorescence); ligand: hypoxanthine (xanthine aptamer); higher = higher reporter protein expression; conditions: HEK293T, ligand present: no
How it was run: (§1)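 With or without ligand for 48 h, enriched HEK293T libraries carrying a lentiviral ribozyme-switch mCherry reporter and EF1α-BFP were sorted into 6 mCherry/BFP bins. Bin genomic DNA was amplified by PCR, barcoded and sequenced on MiSeq. Fluorescence was taken from normal fits to the resulting bin counts. Each fitted mean of log10(mCherry/BFP) was scaled to five spiked-in control ribozymes.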

hypoxanthine [2] = variants of: B1; experiment: normalized RNA/DNA level with ligand (relative to sTRSVctl = 100) (log10 (% of sTRSVctl)); ligand: hypoxanthine (xanthine aptamer); higher = less ribozyme self-cleavage, higher mRNA level; conditions: ligand concentration (+) RNA-Seq: 5 mM, HEK293T, reporter: mCherry (pCS4076), ligand present: yes
How it was run: (§2)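 HEK293T cells were transfected with library plasmids carrying ribozyme switches linked to an mCherry reporter, or an eGFP reporter in some ligand experiments, at 4 µg per well of a 6-well plate, with any ligand added 1 h beforehand. After 72 h, total RNA was extracted with EDTA, reverse-transcribed, amplified, barcoded and sequenced. RNA level was defined as RNA reads over DNA reads, normalized to a spiked-in non-cleaving sequence or to the top-ranked sequences. That value was multiplied by 100 and converted to log10, the top set was 25 sequences, and only sequences with ≥100 DNA reads were retained.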

hypoxanthine [3] = variants of: B1; experiment: normalized RNA/DNA level without ligand (relative to sTRSVctl = 100) (log10 (% of sTRSVctl)); ligand: hypoxanthine (xanthine aptamer); higher = less ribozyme self-cleavage, higher mRNA level; conditions: HEK293T, reporter: mCherry (pCS4076), ligand present: no
How it was run: as §2

hypoxanthine [4] = variants of: B1; experiment: FACS-Seq fitted mean relative fluorescence mCherry/BFP with ligand (log10 relative fluorescence); ligand: hypoxanthine (xanthine aptamer); ligand concentration (+) FACS-Seq: 5 mM; higher = higher reporter protein expression; conditions: HEK293T, ligand present: yes
How it was run: as §1

Variant	FACS-Seq fitted mean (log10) (hypoxanthine [1])	normalized RNA/DNA level with ligand (log10) (hypoxanthine [2])	normalized RNA/DNA level without ligand (log10) (hypoxanthine [3])	FACS-Seq fitted mean (log10) (hypoxanthine [4])
GUUUAG	0.256 ± 0.013	1.81 ± 0.023	1.464 ± 0.013	0.65 ± 0.013
GUUUAA	0.00874 ± 0.0085	1.917 ± 0.0057	1.83 ± 0.03	0.204 ± 0.078
GAAGCC	–	1.948 ± 0.016	1.85 ± 0.041	–
GAAGCU	–	1.982 ± 0.015	1.84 ± 0.031	–
CAACAA	–	1.88 ± 0.03	1.701 ± 0.015	–
CAACAG	–	1.92 ± 0.021	1.717 ± 0.013	–
CAAAGA	–	1.93 ± 0.03	1.768 ± 0.0019	–
CAAAGG	–	1.751 ± 0.005	1.26 ± 0.062	–
CAAAGC	–	1.956 ± 0.01	1.77 ± 0.021	–
AAAGCC	–	1.94 ± 0.04	1.817 ± 0.0038	–
GACCAC	–	1.94 ± 0.022	1.835 ± 0.017	–
GACCAU	–	1.932 ± 0.0042	1.838 ± 0.0066	–
CAAGGG	–	1.72 ± 0.036	1.28 ± 0.043	–
CAAGGA	–	1.912 ± 0.012	1.79 ± 0.044	–
GACCGC	–	1.89 ± 0.029	1.7634 ± 0.0011	–
GACCGA	–	1.97 ± 0.032	1.8545 ± 0.00036	–
GUUGGG	0.375 ± 0.11	1.89 ± 0.025	1.52 ± 0.029	0.635 ± 0.028
GAAUAU	–	1.93 ± 0.043	1.8073 ± 0.00093	–
CACAUU	–	1.909 ± 0.017	1.86 ± 0.031	–
CACAUG	–	1.91 ± 0.075	1.857 ± 0.017	–
GUUGCA	0.818 ± 0.056	1.918 ± 0.017	1.81 ± 0.021	0.698 ± 0.011
CUUUUA	0.647 ± 0.044	1.92 ± 0.051	1.77 ± 0.043	0.318 ± 0.12
CACCCU	–	1.96 ± 0.034	1.91 ± 0.096	–
CACCCG	–	1.94 ± 0.028	1.906 ± 0.01	–
CACCCC	–	1.96 ± 0.025	1.8889 ± 0.0018	–
CACCCA	–	1.958 ± 0.016	1.83 ± 0.019	–
CACAAA	–	1.8939 ± 0.00066	1.76 ± 0.023	–
CACAAC	–	1.93 ± 0.027	1.839 ± 0.018	–

Variant	FACS-Seq fitted mean (log10) (hypoxanthine [1])	normalized RNA/DNA level with ligand (log10) (hypoxanthine [2])	normalized RNA/DNA level without ligand (log10) (hypoxanthine [3])	FACS-Seq fitted mean (log10) (hypoxanthine [4])
CACAAG	–	1.877 ± 0.0098	1.676 ± 0.013	–
CACAAU	–	1.89 ± 0.053	1.78 ± 0.034	–
CAAAUU	–	1.95 ± 0.029	1.806 ± 0.014	–
CAAAUG	–	1.913 ± 0.011	1.82 ± 0.041	–
AUUUAA	0.629 ± 0.027	1.901 ± 0.019	1.81 ± 0.051	0.649 ± 0.015
CAAUCG	–	1.98 ± 0.083	1.89 ± 0.019	–
CAAUCU	–	2.01 ± 0.059	1.85 ± 0.042	–
CAAUCA	–	1.91 ± 0.069	1.77 ± 0.0087	–
CACCAU	–	1.92 ± 0.021	1.8 ± 0.024	–
CACCAG	–	1.97 ± 0.057	1.81 ± 0.061	–
CACCAA	–	1.9 ± 0.032	1.79 ± 0.082	–
AACAUU	–	1.91 ± 0.053	1.873 ± 0.011	–
AACAUC	–	1.95 ± 0.022	2.02 ± 0.022	–
AAAAGC	–	1.9 ± 0.027	1.77 ± 0.042	–
AAACUA	–	1.89 ± 0.043	1.7704 ± 0.0017	–
AAACUC	–	1.95 ± 0.035	1.95 ± 0.021	–
GACCUA	–	1.935 ± 0.01	1.85 ± 0.033	–
GACCUU	–	1.95 ± 0.033	1.885 ± 0.015	–
GACCUC	–	1.93 ± 0.031	1.909 ± 0.0094	–
CAAUGA	–	1.92 ± 0.038	1.82 ± 0.051	–
CAAUGC	–	1.95 ± 0.047	1.89 ± 0.029	–
CAAGCG	–	1.94 ± 0.037	1.82 ± 0.03	–
CAAGCU	–	1.981 ± 0.0081	1.892 ± 0.003	–
GAACUG	–	1.87 ± 0.05	1.519 ± 0.0031	–
GAACUC	–	1.9377 ± 0.00012	1.9 ± 0.01	–
AACCCC	–	1.97 ± 0.082	1.87 ± 0.043	–
AACCCU	–	1.932 ± 0.0028	1.8887 ± 0.0015	–
